In test [1] the target is T1, TMR-CGYPKHREMAVDSP (Drosophila).
T1 peptide: Ac-C(TMR)GYPKHREMAVDSP-NH2
Briefly: fluorescence polarisation. On the technique in general: In fluorescence polarisation assays a small probe gives low polarisation when free and higher when bound to something large.

The target in test [2] is T2, D. melanogaster Par-6 PDZ domain (residues 156-255) (D. melanogaster, UniProt O97111 156-255).
T2 sequence (looked up): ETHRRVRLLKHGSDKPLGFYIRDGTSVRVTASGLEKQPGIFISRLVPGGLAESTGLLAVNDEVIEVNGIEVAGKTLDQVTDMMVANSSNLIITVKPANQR
Briefly: fluorescence polarisation.

B1: PDZ-PxxP-COOH synthetic regulatory system without decoy ([Par-6 156-255]-PPPALPPKHREMAAD) (other, D. melanogaster)
chain: ETHRRVRLLKHGSDKPLGFYIRDGTSVRVTASGLEKQPGIFISRLVPGGLAESTGLLAVNDEVIEVNGIEVAGKTLDQVTDMMVANSSNLIITVKPANQRLPPPALPPKHREMAAD
Regarding B1, the affinity in test [1], expressed as Kd, was 48 µM.
Ac-C(TMR)GYPKHREMAAD-NH2 [TMR-CGYPKHREMAAD]: the Kd in test [2] is 15 µM.

A word on the Kd: it is the equilibrium constant for the complex coming apart. Read a high Kd as lower affinity.

Source of the values: article PMC3358930 (ACS synthetic biology, 2011).
